# B1: Endolysin, P03706 (parent)
# chain: MVEINNQRKAFLDMLAWSEGTDNGRQKTRNHGYDVIVGGELFTDYSDHPRKLVTLNPKLKSTGAGRYQLLSRWWDAYRKQLGLKDFSPKSQDAVALQQIKERGALPMIDRGDIRQAIDRCSNIWASLPGAGYGQFEHKADSLIAKFKEAGGTVREIDV
# Variants of: B1
# Settings: Escherichia phage lambda, pH 7, Thermal, Fluorescence, phosphate buffer 100 mM, reversible: yes, structure 1AM7, whole UniProt chain shown; for ddG of mutation (higher = less stable) / unfolding free energy: 25 °C
Variant,ddG of mutation (higher = less stable) [kcal/mol],unfolding free energy [kcal/mol],Tm [°C],"change of melting temperature, mutant - wild type (higher = more stable) [°C]",unfolding enthalpy (van 't Hoff) [kcal/mol]
H31N H137N,-1.8,8.9,–,–,–
H48N,5,2.1,30.1,-22.2,60.8
H31D,1.6,5.5,46.1,-6.2,99.8
